{
  "source": "paper PMC6488192",
  "about": "(2019)",
  "parents": {"B1": {"name": "RNA Editing Helicase 2 (REH2) wild type with TAP tag [T. brucei] / REH2-Associated Factor 1 (^H2F1), endogenous [T. brucei (endogenous in Lister 427 29-13 procyclic cells)] (parent complex)", "chain 1": "FQTQEITPGEVSLVEATDESDRAFGETRKEDFSFDGSSEFPECFKDTKHVDTFSRARVVSFIKRFSQGAVTSSSEVFEGREIVNDNGTPLYHSRVRLPFRSHTGELWAHGVACNSKDAELLAAMHAEHIIDEFGYHIYTLPSMQRKHAEAARKAGRWAPLPDELERTQSPVRVPLPLRRIVDRDETEGGKWLLIDMRPNHYISPSHTLLSPCLFDTTAVHRIKSFLDEHKLSFAQLCTSVEEPGEGGGQSWYVATVSLPPELSTFSEIKAQGKALNREAAVTLACMHAELVLDAHSICLYPSDSTKQKQHALAAWSYGRPAPLPGEDQKNPSHVVCPLPLKQLAVRREDRISCISYEEDIIRRHRALTDQTCEFIETPTLDSSAVEQLKQFLQRENVPRTDPFLVEEVNGYYKATVVLPLPDLYGIRGGVGIAMNATDARVLAAMHAIDVLNILGFHLMDGSTARAEWIAARRARGESVPADTRDPNVLSPSGRRRVATGNSSTQTPSSSTNARSVAAAPDVGTSDPTAPQNTKRRVAKRARVADAQPTEEKDAANSDSDEATSYLKMRETVSKELWNLEPDSPDGYIMVSPTDPETRTQFEQALYSPRQVDLGSKSRIKNYLASVGRRIEEVFFVQRIEAEDNGGQAICRCAVNLPVPRRFGDRIALGEAVDPKDAENLAAMHAELILDTLGIPIYTDSALQRLHVRLCAKCGRNAPVEYSESVAAATASPPPLRREVVGSIHWENKSKRRRAAISVQKGGGPANSQETTSALREDEEPLIAPKERREYTFVPEKDLDLVSRARVHYYLRRNGIAKLEPEYRMELRGLGNVLHIAELTLPLPDVYGKRVAHGSALTKRDAEILCWMHAEQILDAVGLCLFDNLPMLQRRHVECVKRLGRWAPLVSENATKPPHTPTPLPLTLGTTQEKPQYPTPPTNVRQDWEQYAQECQRYIEINVMREHNIFYEMGKTPRTGDETYDAALAEVESMPIDPDAKTVLQRYCNVANVNYPTFWKSRTVGPISCRVCLTTIEVPGHEYLRASGVAWNKEASQRQAAMHALALLRRVEPDFAEFEKQIKAEVVDKVNLVDPAAVLDEEAPVLRRTARVSKKSLGNWDPVSKDFSHEGKVRIIELFTVCFGLQPPLVRHLNRRSGSFVQHFTVVEVTDEDGKTWVGTGRDAGPRFNEPAAFDDLFSKLSRGVQGFQALMDLIRAHPHLDPEHIANVSLTDSQKERILKAVDGLPMVEEEDVAHPEQWADADSDRGIGIMALIAMDASQRAQESQELEAKLQAKLTNEEYQTRYASQRQRLRIYEKRDEILRAISSNQIVIICGTTGCGKTTQVPQYILDDMTEKGMGGDCSIVITQPRRLSAVSIARRVAAERLESIGETCGYSIRLDAKPGRNINFCTSGVLLRLLHSAPLLNGINYLIIDEIHERDINSDFLLILLRQLLHRRKDLHVILMSATLQADQFGKYFGNAPIINVEGYVHAVEEMYLEDLVPIATERNVMTPLLKEAAAALERNGAADGFCPTVVPPTAKYGFLEATADIDYMTIQIAIDHAVRSLDLTDSSILVFLPGWDEINRAKEILERNAKFHIICLHSSVGAEEQMRCFLPAPEGKIKLILSTNIAESGVTIDDVAAVIDVGRGKEKSYVMRKGTTSVGRNEMGSMSQLVTVYASRANCVQRRGRVGRTRPGMCIRLYSKKHFQSLHDFQTPEMLRTHLDSLCLQILALDLGDPADFLQQALEPPSSDHIEAAMKRLHELGATTSTRQLTPLGLRLSRLPVAPKVGKMVIMGAILRCLDSALTIAGVSDTDVFISTREHREAVRLHKEDLSYGTQSDVIASVNAFNFWVTSHYAKTPAEVVYDLQERMLSVPQLLTVSKYKQQFFEIVAGSGFIHMKQNYKDAKNKDRADIFVDQSEYSADSLNVGLVKCVVASGLFPNVVMNRGKRLMRNKLANRLDPSSASVVHRTSQENIGQPYFVYDELVKSSESERLLVRDLTNVSLWTILLMGTSSMPVTYRDDLNLAVVDEWIMFRATFGTLELIRKFKRALNVCLGRKFMNPNDEENNAKLEELRCIIKELVCTPFKPNDLAEKPWEEKGVIIEPCTEPKGGSSEAEKTHVNSSHTPTTSAEAGGDS", "chain 2": "CHHPLRIPSVQLAAPRSHTHEDIAYASCPACSRVVHMCDMLTHLITAHRELDQTHCRKMCTERLALYERVIGVPLKKSELTSSGRRVLDFLPTVLPTGYMCNWCDRRSDVYATRDKFLKHVADVHTDIDLEEVEPHVPLPPRGVVVEKSNGDGGPQPTRRLNGVVAVAEKSEPINAVPRILGISLPRGVDRPLKATAQFSDTEFPCELCNRTFNSEIDLLQHLETRHPDGTAEGPAGVDSAAIADVAQFSAKEATTGGDQRVHVICDLCVSSSKVYKMPSALFSHIRFKHPNEDAAFHVERLIREQKTVSSFVCTVCQKAFASAAALDGHFNSKHAEQGEAQNVVGRVTANNCWWCHDCEKGFSSAKGLHGHMQNKHGLSSQTHPCPACKRVFADIYSLEEHLSLQHKTIRLSDIGLLTHVKCSTCERFFLSHEDLHRHAVKHHKKDPRAPAQPFEAPTSASHVAASTSAAVPSEVEATASPQGPRKVKKRKKTTEVSEVTS"}},
  "data": [
    {"variants_of": "B1", "assay": "IgG pulldown of TAP-tagged REH2, western blot quantification; parent: 1; read off a plot", "values": [
      {"variant": "chain 1 H1968E", "ratio to parent": "~0.97"},
      {"variant": "chain 1 R1993A", "ratio to parent": "~0.92"},
      {"variant": "chain 1 K1048A, chain 1 A1056D", "ratio to parent": "~1"},
      {"variant": "chain 1 R1949A", "ratio to parent": "~1.1"}
    ]}
  ]
}
